Laboratory results as given in US20240368263A1 (PROMETHEUS BIOSCIENCES, published 2024).

T1: human TL1A (endogenous, human whole blood assay) (human, UniProt O95150 1-251, limits assumed)
T1 sequence (looked up): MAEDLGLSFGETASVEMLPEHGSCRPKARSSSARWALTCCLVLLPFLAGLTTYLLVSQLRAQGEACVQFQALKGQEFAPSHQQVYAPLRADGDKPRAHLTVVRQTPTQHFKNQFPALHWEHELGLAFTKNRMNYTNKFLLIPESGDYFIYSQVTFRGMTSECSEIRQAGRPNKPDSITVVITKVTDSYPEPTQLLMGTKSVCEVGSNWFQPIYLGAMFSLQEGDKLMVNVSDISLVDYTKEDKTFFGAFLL

T2: membrane-associated human TL1A on transfected HEK293 cells (human, UniProt O95150 1-251)
T2 construct: whole, on cells
T2 sequence (looked up): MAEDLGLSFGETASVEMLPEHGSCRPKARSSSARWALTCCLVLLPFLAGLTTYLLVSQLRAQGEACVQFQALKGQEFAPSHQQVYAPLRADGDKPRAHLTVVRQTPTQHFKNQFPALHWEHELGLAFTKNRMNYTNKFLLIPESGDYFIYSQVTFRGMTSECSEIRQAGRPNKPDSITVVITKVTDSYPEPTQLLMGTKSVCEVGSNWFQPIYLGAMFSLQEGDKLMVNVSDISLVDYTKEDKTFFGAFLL

T3: Fas/TNFSF6 (R&D Systems, cat. no. 126-FL/CF) (UniProt P48023 134-281)
T3 sequence (looked up): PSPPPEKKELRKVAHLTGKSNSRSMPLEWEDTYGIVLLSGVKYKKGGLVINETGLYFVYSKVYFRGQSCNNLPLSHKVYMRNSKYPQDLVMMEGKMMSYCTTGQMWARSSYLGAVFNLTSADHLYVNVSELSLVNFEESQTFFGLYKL

T4: human TL1A (Fitzgerald, Prod. #30R-AT070) (human, UniProt O95150 72-251, limits assumed, biotinylated with EZ-Link Sulfo-NHS-LC-Biotin where used as soluble antigen)
T4 construct: also called TNFSF15; biotinylated human TL1A
T4 sequence (looked up): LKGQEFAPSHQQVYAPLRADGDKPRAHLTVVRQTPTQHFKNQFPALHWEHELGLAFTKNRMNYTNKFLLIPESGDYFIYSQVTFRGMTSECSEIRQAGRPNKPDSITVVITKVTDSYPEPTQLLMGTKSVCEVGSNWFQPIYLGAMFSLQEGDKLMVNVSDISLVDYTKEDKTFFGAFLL


Key:
[1] = target: T1, human TL1A (endogenous, human whole …); assay: cell-based or functional assay
[2] = target: T2, membrane-associated human TL1A on …; assay: flow cytometry, HEK293 cells transfected with human TL1A
Procedure: All the Fab variants were tested for binding to membrane-associated human TL1A. For these studies a HEK293 cell line that had been transfected with human TL1A was used. The 293 cells expressing membrane bound human TL1A were maintained in DMEM containing L-glutamine, glucose, sodium pyruvate, and phenol red (ThermoFisher cat #11995-065) plus 10% fetal bovine serum, 1X penicillin-streptomycin (Fisher cat #15140122) and 2 μg/ml puromycin (Gibco cat #A11138-03) in a 37° C. incubator with 5% CO2. Three days prior to the assay, a T-75 flask was seeded with 3×10⁶ cells so that the flask was 90-95% confluent on the day of the assay. The media was aspirated and the cell monolayer was gently washed with 5 ml PBS. Adherent cells were removed by repeatedly pipetting 10 ml ice cold 1% BSA/PBS against the monolayer. The cells were counted and 5×10⁵ were aliquoted for each sample to be analyzed. The cells were collected by centrifuging at 300× g at 4° C. for 5 minutes and the wash was discarded. The cells were resuspended in 100 μl Fab or IgG diluted in 1% BSA/PBS and placed on ice for 30 min. Next, the cells were washed with 1 ml 1% BSA/PBS and collected by centrifuging at 300× g at 4° C. for 5 min. The wash was discarded and 100 μl secondary goat F (ab′) 2 anti-human kappa FITC (Southern Biotech cat #2062-02) or goat F (ab′) 2 anti-human IgG PE (Southern Biotech cat #2043-09) conjugate, diluted 1:200 in BSA/PBS was added. Cells were placed on ice for 30 min. Finally, the cells were washed with 1 ml BSA/PBS, collected by centrifuging at 300× g at 4° C. for 5 min. The wash was removed and the cells were resuspended in 500 μl 1% BSA/PBS. One drop of Sytox AADvanced ReadyFlow Reagent (ThermoFisher cat #R37173) was added per sample and the samples were analyzed on the Attune NXT Flow Cytometer (ThermoFisher).

[3] = target: T3, Fas/TNFSF6 (R&D Systems, cat. no. …); assay: ELISA, antigen coated at 1 µg/ml, Fab titrated
Procedure: (§1) Next, all the Fab variants were characterized for their selectivity for human TL1A relative to other TNFSF members TRAIL, LIGHT and Fas. […] The plate was washed 3 times with PBS-T and blocked with 100 μl of 1% BSA/PBS. The block was discarded and the Fab variants or control antibodies (Fas/TNFSF6, R&D Systems, cat. no. AF126; TRAIL/TNFSF10, R&D Systems, cat. no. AF375; LIGHT/TNFSF14, R&D Systems, cat. no. AF664) were titrated in 50 μl 1% BSA/PBS and incubated for 1 h at 25° C. The plate was washed 3 times with PBS-T and secondary HRP-conjugated antibody (diluted 5,000-fold in 1% BSA/PBS) was added for 1 h at 25° C. The plate was washed 3 times with PBS-T and developed.

[4] = target: LIGHT/TNFSF14 (R&D Systems, cat. no. 664-LI/CF) (UniProt O43557 74-240); assay: ELISA, antigen coated at 1 µg/ml, Fab titrated
Chain of LIGHT/TNFSF14 (R&D Systems, cat. no. 664-LI/CF) (O43557 74-240 limits assumed): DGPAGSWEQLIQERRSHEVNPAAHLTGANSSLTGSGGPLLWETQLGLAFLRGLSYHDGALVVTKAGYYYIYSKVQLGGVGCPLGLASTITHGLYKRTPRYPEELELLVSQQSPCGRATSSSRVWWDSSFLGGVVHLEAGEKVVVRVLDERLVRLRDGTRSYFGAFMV
Procedure: as §1

[5] = target: TRAIL/TNFSF10 (R&D Systems, cat. no. 375-TL/CF) (UniProt P50591 114-281); assay: ELISA, antigen coated at 1 µg/ml, Fab titrated
Chain of TRAIL/TNFSF10 (R&D Systems, cat. no. 375-TL/CF) (P50591 114-281 limits assumed): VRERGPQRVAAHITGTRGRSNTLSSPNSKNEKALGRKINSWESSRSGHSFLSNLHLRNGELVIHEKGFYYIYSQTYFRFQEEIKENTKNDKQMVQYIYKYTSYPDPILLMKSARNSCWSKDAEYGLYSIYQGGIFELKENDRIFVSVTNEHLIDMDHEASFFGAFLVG
Procedure: as §1

[6] = target: T4, human TL1A (Fitzgerald, Prod. …); assay: two ELISA formats: Fab on coated TL1A; captured Fab with biotinylated TL1A
Procedure: Fabs with the CDRs shown in Tables 19 to 22 were tested for binding to human TL1A in multiple formats. Next, uniform (saturating) quantities of soluble Fab variants were captured on the surface of an ELISA plate and soluble, biotinylated human TL1A was titrated as shown in FIGS. 10 to 13.

Binder | IC50, inhibition of IFN-γ production, human whole blood assay [1] [nM] | binding result [2] | binding result [3] | binding result [4] | binding result [5] | binding result [6]
clone 47, modified IgG1 / kappa (antibody) heavy: not shown light: EIVLTQSPGTLSLSPGERATLSCRASSSVSYMYWYQQKPGQAPRLLIYATSNLASGIPDRFSGSGSGTDFTLTISRLEPEDFAVYYCQQWEGNPRTFGGGTKLEIKRTVAAPSVFIFPPSDEQLKSGTASVVCLLNNFYPREAKVQWKVDNALQSGNSQESVTEQDSKDSTYSLSSTLTLSKADYEKHKVYACEVTHQGLSSPVTKSFNRGEC | 1.26 |  |  |  |  | 
clone 23, IgG2 / kappa (antibody) heavy: QVQLVQSGAEVKKPGASVKVSCKASGFDIQDTYMHWVRQAPGQGLEWMGRIDPASGHLKYDPKFQNRVTMTRDTSTSTVYMELSSLRSEDTAVYYCARSGGLPDKWGQGTTVTVSSASTKGPSVFPLAPCSRSTSESTAALGCLVKDYFPEPVTVSWNSGALTSGVHTFPAVLQSSGLYSLSSVVTVPSSNFGTQTYTCNVDHKPSNTKVDKTVERKCCVECPPCPAPPVAGPSVFLFPPKPKDTLMISRTPEVTCVVVDVSHEDPEVQFNWYVDGVEVHNAKTKPREEQFNSTFRVVSVLTVVHQDWLNGKEYKCKVSNKGLPAPIEKTISKTKGQPREPQVYTLPPSREEMTKNQVSLTCLVKGFYPSDIAVEWESNGQPENNYKTTPPMLDSDGSFFLYSKLTVDKSRWQQGNVFSCSVMHEALHNHYTQKSLSLSPGK light: EIVLTQSPGTLSLSPGERATLSCRASSSVSYMYWYQQKPGQAPRLLIYATSNLASGIPDRFSGSGSGTDFTLTISRLEPEDFAVYYCQQWEGNPRTFGGGTKLEIKRTVAAPSVFIFPPSDEQLKSGTASVVCLLNNFYPREAKVQWKVDNALQSGNSQESVTEQDSKDSTYSLSSTLTLSKADYEKHKVYACEVTHQGLSSPVTKSFNRGEC | 0.33 |  |  |  |  | 
clone 47, IgG2 / kappa (antibody) heavy: QVQLVQSGAEVKKPGASVKVSCKASGFDIQDTYMHWVRQAPGQGLEWMGRIEPASGHVKYDPKFQTRVTMTRDTSTSTVYMELSSLRSEDTAVYYCARSGGLPDWWGQGTTVTVSSASTKGPSVFPLAPCSRSTSESTAALGCLVKDYFPEPVTVSWNSGALTSGVHTFPAVLQSSGLYSLSSVVTVPSSNFGTQTYTCNVDHKPSNTKVDKTVERKCCVECPPCPAPPVAGPSVFLFPPKPKDTLMISRTPEVTCVVVDVSHEDPEVQFNWYVDGVEVHNAKTKPREEQFNSTFRVVSVLTVVHQDWLNGKEYKCKVSNKGLPAPIEKTISKTKGQPREPQVYTLPPSREEMTKNQVSLTCLVKGFYPSDIAVEWESNGQPENNYKTTPPMLDSDGSFFLYSKLTVDKSRWQQGNVFSCSVMHEALHNHYTQKSLSLSPGK light: EIVLTQSPGTLSLSPGERATLSCRASSSVSYMYWYQQKPGQAPRLLIYATSNLASGIPDRFSGSGSGTDFTLTISRLEPEDFAVYYCQQWEGNPRTFGGGTKLEIKRTVAAPSVFIFPPSDEQLKSGTASVVCLLNNFYPREAKVQWKVDNALQSGNSQESVTEQDSKDSTYSLSSTLTLSKADYEKHKVYACEVTHQGLSSPVTKSFNRGEC | 1.01 |  |  |  |  | 
clone 34, IgG2 / kappa (antibody) heavy: QVQLVQSGAEVKKPGASVKVSCKASGFDIQDTYMHWVRQAPGQGLEWMGRIEPASGHIKYDPKFQGRVTMTRDTSTSTVYMELSSLRSEDTAVYYCARSGGLPDWWGQGTTVTVSSASTKGPSVFPLAPCSRSTSESTAALGCLVKDYFPEPVTVSWNSGALTSGVHTFPAVLQSSGLYSLSSVVTVPSSNFGTQTYTCNVDHKPSNTKVDKTVERKCCVECPPCPAPPVAGPSVFLFPPKPKDTLMISRTPEVTCVVVDVSHEDPEVQFNWYVDGVEVHNAKTKPREEQFNSTFRVVSVLTVVHQDWLNGKEYKCKVSNKGLPAPIEKTISKTKGQPREPQVYTLPPSREEMTKNQVSLTCLVKGFYPSDIAVEWESNGQPENNYKTTPPMLDSDGSFFLYSKLTVDKSRWQQGNVFSCSVMHEALHNHYTQKSLSLSPGK light: EIVLTQSPGTLSLSPGERATLSCRASSSVSYMYWYQQKPGQAPRLLIYATSNLASGIPDRFSGSGSGTDFTLTISRLEPEDFAVYYCQQWEGNPRTFGGGTKLEIKRTVAAPSVFIFPPSDEQLKSGTASVVCLLNNFYPREAKVQWKVDNALQSGNSQESVTEQDSKDSTYSLSSTLTLSKADYEKHKVYACEVTHQGLSSPVTKSFNRGEC | 0.16 |  |  |  |  | 
Clone X-V Fab (Fab, V domains shown, Fab) VH: QVQLVQSGAEVKKPGASVKVSCKASGFDIQDTYMHWVRQAPGQGLEWMGRIDPASGHTKYDPKFQVRATITTDTSASTAYLQLSSLRSEDTAVYYCARSGGLPDFWGQGTTVTVSS VL: EIVLTQSPGTLSLSPGERATLSCRASSSVSYMYWYQQKPGQAPRLLIYATSNLASGIPDRFSGSGSGTDFTLTISRLEPEDFAVYYCQQWSGNPRTFGGGTKLEIK |  | binds | no binding | no binding | no binding | binds
Clone XL3-15 Fab (Fab, V domains shown, Fab) VH: QVQLVQSGAEVKKPGASVKVSCKASGFDIQDTYMHWVRQAPGQGLEWMGRIDPASGHTKYDPKFQGRATITTDTSASTAYLQLSSLRSEDTAVYYCARSGGLPDFWGQGTTVTVSS VL: EIVLTQSPGTLSLSPGERATLSCRASSSVSYMYWYQQKPGQAPRLLIYATSNLASGIPDRFSGSGSGTDFTLTISRLEPEDFAVYYCQQWSRNPRTFGGGTKLEIK |  | binds | no binding | no binding | no binding | binds
Clone XL3-10 Fab (Fab, V domains shown, Fab) VH: QVQLVQSGAEVKKPGASVKVSCKASGFDIQDTYMHWVRQAPGQGLEWMGRIDPASGHTKYDPKFQGRATITTDTSASTAYLQLSSLRSEDTAVYYCARSGGLPDFWGQGTTVTVSS VL: EIVLTQSPGTLSLSPGERATLSCRASSSVSYMYWYQQKPGQAPRLLIYATSNLASGIPDRFSGSGSGTDFTLTISRLEPEDFAVYYCQQWSGNPRSFGGGTKLEIK |  | binds | no binding | no binding | no binding | binds
Clone XL3-6 Fab (Fab, V domains shown, Fab) VH: QVQLVQSGAEVKKPGASVKVSCKASGFDIQDTYMHWVRQAPGQGLEWMGRIDPASGHTKYDPKFQGRATITTDTSASTAYLQLSSLRSEDTAVYYCARSGGLPDFWGQGTTVTVSS VL: EIVLTQSPGTLSLSPGERATLSCRASSSVSYMYWYQQKPGQAPRLLIYATSNLASGIPDRFSGSGSGTDFTLTISRLEPEDFAVYYCSQWSGNPRTFGGGTKLEIK |  | binds | no binding | no binding | no binding | binds
